Measured values published in paper PMC8591511, “Flexible open conformation of the AP-3 complex explains its role in cargo recruitment at the Golgi” (The Journal of Biological Chemistry, 2021).
One block for each binder: values may come before it.

Experiments:
[1] = target: T1, GFP-tagged AP-3 complex (Apl6 tagged C-terminally with mGFP) (S. cerevisiae, UniProt Q08951 1-932; P46682 1-809; P38153 1-483; P47064 1-194); assay: single-molecule TIRF microscopy on polymer-supported membranes; polymer-supported membranes (Golgi mixture with 1 mol% PI4P) with or without Arf1 (10 nM), Sec7ΔC (10 nM) and 400 μM GTPγS, or reconstituted Vam3; GFP-tagged AP-3 (2 nM) labelled with anti-GFP nanobody-Dy647; room temperature; monitored 45 min; details: both partners purified
T1 construct: Apl5, δ-subunit of the yeast AP-3 complex; Apl6, β3-subunit of the yeast AP-3 complex; Apm3, μ3-subunit of the yeast AP-3 complex; Aps3, σ-subunit of the yeast AP-3 complex; also called GFP-AP-3; source: yeast strain with Apl6 fused to GFP, purified; labelled via anti-GFP nanobody carrying DY647 or Alexa Fluor 568; not shown: mGFP, C-terminal, kept; copies: + + +

[2] = target: T1, GFP-tagged AP-3 complex (Apl6 tagged …); assay: single-molecule tracking of cargo mobility (TIRF microscopy); labelled Vam3 in polymer-supported membranes tracked before and after the addition of AP-3; without Arf1 and Sec7; details: both partners purified

T1 sequence (Q08951 whole entry, chain 1 of 4, the tested form may be a part): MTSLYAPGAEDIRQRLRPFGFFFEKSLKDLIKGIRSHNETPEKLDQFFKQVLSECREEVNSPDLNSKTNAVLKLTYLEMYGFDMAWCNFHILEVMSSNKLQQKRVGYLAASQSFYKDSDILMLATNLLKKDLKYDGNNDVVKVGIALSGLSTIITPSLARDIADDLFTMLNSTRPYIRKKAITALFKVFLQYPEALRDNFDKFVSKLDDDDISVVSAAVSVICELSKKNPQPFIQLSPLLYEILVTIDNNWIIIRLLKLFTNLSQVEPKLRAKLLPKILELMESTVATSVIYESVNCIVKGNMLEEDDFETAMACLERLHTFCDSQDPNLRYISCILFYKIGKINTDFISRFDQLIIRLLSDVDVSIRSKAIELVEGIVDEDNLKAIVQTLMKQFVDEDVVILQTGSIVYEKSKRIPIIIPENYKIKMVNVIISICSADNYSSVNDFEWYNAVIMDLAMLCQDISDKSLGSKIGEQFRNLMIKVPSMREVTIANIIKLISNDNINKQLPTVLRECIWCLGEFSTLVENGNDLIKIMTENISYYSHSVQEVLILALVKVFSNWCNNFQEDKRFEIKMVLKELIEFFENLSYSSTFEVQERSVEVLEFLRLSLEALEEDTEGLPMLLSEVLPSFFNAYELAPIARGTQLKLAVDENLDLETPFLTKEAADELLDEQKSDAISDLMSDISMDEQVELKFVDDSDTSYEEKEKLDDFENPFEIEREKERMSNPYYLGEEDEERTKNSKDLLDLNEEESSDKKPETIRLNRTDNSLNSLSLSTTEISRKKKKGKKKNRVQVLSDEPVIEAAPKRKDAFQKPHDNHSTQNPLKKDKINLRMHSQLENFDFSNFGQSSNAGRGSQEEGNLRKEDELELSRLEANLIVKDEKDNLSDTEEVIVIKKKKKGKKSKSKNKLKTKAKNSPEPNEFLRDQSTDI
T1 sequence (P46682 whole entry, chain 2 of 4, the tested form may be a part): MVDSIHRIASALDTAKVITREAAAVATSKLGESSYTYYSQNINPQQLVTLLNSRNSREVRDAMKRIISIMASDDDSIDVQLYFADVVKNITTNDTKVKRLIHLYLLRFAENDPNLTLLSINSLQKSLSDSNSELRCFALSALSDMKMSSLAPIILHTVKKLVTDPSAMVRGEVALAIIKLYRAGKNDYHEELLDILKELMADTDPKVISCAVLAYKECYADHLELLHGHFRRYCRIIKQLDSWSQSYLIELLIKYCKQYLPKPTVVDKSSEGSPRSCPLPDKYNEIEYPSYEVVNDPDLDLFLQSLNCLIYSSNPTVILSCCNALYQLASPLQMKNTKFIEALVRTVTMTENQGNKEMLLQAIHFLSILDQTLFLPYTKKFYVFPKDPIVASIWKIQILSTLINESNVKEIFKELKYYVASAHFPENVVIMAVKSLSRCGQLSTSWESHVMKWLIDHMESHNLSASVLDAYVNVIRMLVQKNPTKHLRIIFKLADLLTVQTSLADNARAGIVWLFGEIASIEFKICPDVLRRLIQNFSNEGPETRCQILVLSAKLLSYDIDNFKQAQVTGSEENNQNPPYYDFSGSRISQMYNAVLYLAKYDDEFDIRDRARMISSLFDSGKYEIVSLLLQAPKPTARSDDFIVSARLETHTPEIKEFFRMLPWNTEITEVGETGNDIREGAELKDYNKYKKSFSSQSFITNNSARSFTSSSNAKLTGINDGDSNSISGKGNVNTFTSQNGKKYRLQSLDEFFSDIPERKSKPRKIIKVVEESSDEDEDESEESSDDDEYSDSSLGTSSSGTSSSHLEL
T1 sequence (P38153 whole entry, chain 3 of 4, the tested form may be a part): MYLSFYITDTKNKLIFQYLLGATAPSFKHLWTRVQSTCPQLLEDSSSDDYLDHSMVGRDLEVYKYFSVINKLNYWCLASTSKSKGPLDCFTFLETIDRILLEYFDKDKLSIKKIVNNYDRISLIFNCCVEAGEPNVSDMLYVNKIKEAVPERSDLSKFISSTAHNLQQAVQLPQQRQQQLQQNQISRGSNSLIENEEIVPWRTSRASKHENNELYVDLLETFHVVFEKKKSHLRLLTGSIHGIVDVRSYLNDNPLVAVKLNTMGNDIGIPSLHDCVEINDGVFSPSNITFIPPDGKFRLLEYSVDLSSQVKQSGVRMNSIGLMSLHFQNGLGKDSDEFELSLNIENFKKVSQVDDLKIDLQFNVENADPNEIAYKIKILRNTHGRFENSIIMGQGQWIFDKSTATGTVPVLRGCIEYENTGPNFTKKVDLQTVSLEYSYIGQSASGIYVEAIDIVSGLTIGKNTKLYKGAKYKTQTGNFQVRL
T1 sequence (P47064 whole entry, chain 4 of 4, the tested form may be a part): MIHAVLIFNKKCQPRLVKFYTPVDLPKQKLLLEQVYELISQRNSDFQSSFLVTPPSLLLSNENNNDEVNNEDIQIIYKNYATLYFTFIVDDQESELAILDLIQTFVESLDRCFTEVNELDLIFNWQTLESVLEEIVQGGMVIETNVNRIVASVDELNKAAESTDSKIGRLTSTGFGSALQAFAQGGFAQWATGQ

binding result [1]: binds
B1: Vam3 (yeast vacuolar SNARE, AP-3 cargo with dileucine motif) (natural protein, UniProt Q12241 1-283, looked up)
chain: MSFFDIEAQSSKGNSQQEPQFSTNQKTKELSNLIETFAEQSRVLEKECTKIGSKRDSKELRYKIETELIPNCTSVRDKIESNILIHQNGKLSADFKNLKTKYQSLQQSYNQRKSLFPLKTPISPGTSKERKDIHPRTEAVRQDPESSYISIKVNEQSPLLHNEGQHQLQLQEEQEQQQQGLSQEELDFQTIIHQERSQQIGRIHTAVQEVNAIFHQLGSLVKEQGEQVTTIDENISHLHDNMQNANKQLTRADQHQRDRNKCGKVTLIIIIVVCMVVLLAVLS
notes: Vam3, yeast SNARE; transmembrane domain aa 263–283; source: reconstituted into proteoliposomes or polymer-supported membranes

binding result [2]: binds
B2: Vam3 labelled with Atto 647N (natural protein, yeast, UniProt Q12241 1-283, looked up)
chain: B1 chain
modifications: Atto 647N (Maleimide)
notes: Vam3, yeast SNARE; also called prelabeled transmembrane cargo; source: reconstituted into polymer-supported membranes
